# Test system: MS2 coat protein
# Assay: apparent KD of MS2 coat protein; designed switch direction (-1 OFF switch, 1 ON switch): -1; higher = weaker reporter binding
# How it was run: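 Stalled E. coli RNA polymerase transcribed designed RNA switches on Illumina chips, which were then titrated with SNAP-549-labelled MS2 coat protein, doubling from 0.7 or 1.5 nM to 3 µM. Steps lasted from 0.8–1.5 h at the lowest concentration to 10–20 min at the highest. The apparent KD is each design's median over clusters of curve-fitted normalised fluorescence.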
# [1] = Eterna round: R95, input ligand: FMN 200 uM
# [2] = Eterna round: R95, input ligand: microRNA oligo, concentration not stated
# [3] = Eterna round: R95, input ligand: none
# [4] = input ligand: microRNA oligo, concentration not stated
Sequence,apparent KD of MS2 coat protein [1],apparent KD of MS2 coat protein [2],apparent KD of MS2 coat protein [3],apparent KD of MS2 coat protein (input ligand: FMN 200 uM),apparent KD of MS2 coat protein (input ligand: none),apparent KD of MS2 coat protein [4]
"ACAAGCUUUUUGUUCGUCUUAUACACUCCUAAGAGGACAACAUGAGGAUCACCCAUGUAACAAAGACGGACUCAUGU [Sesor Array 11 - Jieux - Sensor v3, turn-off variant 2] (puzzle: Sensor v3, turn-off variant 2)",17.7 nM,129 nM,12 nM,,,
"ACAAGCUUUUUGUUCGUCUUAUACACUCCUAAUAGGACAACAUGAGGAUCACCCAUGUAACAAAGACGAACUCAUGU [Sesor Array 9 - Jieux - Sensor v3, turn-off variant 2] (puzzle: Sensor v3, turn-off variant 2)",11.6 nM,169 nM,9.63 nM,,,
"ACAAUGUUAGGAUAUCUGACAAUUAGUCUCGACUAGUCGAAAGAGAAGGAACAUGAGGAUCACCCAUGUAGAUC [EX4 #73] (Eterna round: R97, puzzle: Exclusion 4)",,,,144 nM,37.4 nM,
"ACAAUUAUGACAGGAUAUAGUUUUUGUUGGUCACUAGAAGGGUCUAUGCACAUGAGGAUCACCCAUGUUCUUUUUAUAUGCGAU [JR_ExcNG1_Sub018] (Eterna round: R96, puzzle: Exclusion NG 1)",,,,31.8 nM,44.4 nM,36.2 nM
"ACACAAGCCCUUUGCUCGUUUUAAUACAGCGGGCUCUUCACAUGAGGAUCACCCAUGUAGGCCUUGUUCCAAGGCCG [Rebileve] (puzzle: Sensor v3, turn-off variant 2)",20.4 nM,23.6 nM,20 nM,,,
"ACACAGCAAGGAUAUACAUGAGGAUCACCCAUGUGGUGGCAGUUACGGUAGGACUAGUGUAGAAGGUGCAGUGG [EX3 #30] (Eterna round: R97, puzzle: Exclusion 3)",,,,487 nM,668 nM,
"ACACAGCGAGGAUAUACAUGAGGAUCACCCAUGUGGCGGCCGUUACGGUAGGACUAGUGUAGAAGGCGCAUUGG [EX3 #34] (Eterna round: R97, puzzle: Exclusion 3)",,,,203 nM,247 nM,
"ACACAGCGAGGAUAUACAUGAGGAUCACCCAUGUGGUGGCAGUUACGGUAGGACUAGUGUAGAAGGUGCCGUGG [EX3 #28] (Eterna round: R97, puzzle: Exclusion 3)",,,,600 nM,588 nM,
"ACACUGCUAGGAUAUGCAGCGGCAUCAGCCGAAAGUCCCUCACAUGAGGAUCACCCAUGUAGAAGGAGCAAGAC [Eternabot (Original) Solution 13] (Eterna round: R97, puzzle: Exclusion 2)",,,,26.9 nM,26.6 nM,
"ACAUAUGUUAGAGGAUCCUACAUGAGGAUCACCCAUGUCGGUAUAAAACUCACACGGUCAACGCUUUUUGUUCGCUA [Eternabot (L1) Solution 2] (Eterna round: R97, puzzle: Sensor, turn-off variant 1)",,,,30.5 nM,34.7 nM,
"ACAUGACAUGAGGAUCACCCAUGUUAGGAUAUCCCUCGUCCUGACUGAACGUCGGAAUGGAGAAGGAGCAUGGC [Eternabot (L2) Solution 88] (Eterna round: R97, puzzle: Exclusion 1)",,,,47.1 nM,45.8 nM,
"ACAUGAGGAUCACCCAUGUAAACAUAAUGGCUCAUGUAGAGUCAGGAUAUGCGUGGCGAACAAGCGCAGAAGGGACAAGACUGG [Deportation 25 - Jieux - Exclusion NG 3] (Eterna round: R96, puzzle: Exclusion NG 3)",,,,30 nM,27.2 nM,19.6 nM
"ACAUGAGGAUCACCCAUGUAAACAUAAUGGCUCAUGUAGAGUCAGGAUAUGCGUGGCGAACAAUCGCAGAAGGGACAAGACUGG [Deportation 28 - Jieux - Exclusion NG 3] (Eterna round: R96, puzzle: Exclusion NG 3)",,,,29.2 nM,27.8 nM,19.9 nM
"ACAUGAGGAUCACCCAUGUAAACAUGAUGGCUGAUGUAGAGCUAGGAUAUGAGUGACUAUCUAUCUCAGAAGGAGCUUGACUGG [Deportation 45 - Jieux - Exclusion NG 3] (Eterna round: R96, puzzle: Exclusion NG 3)",,,,26 nM,31.4 nM,27.1 nM
"ACAUGAGGAUCACCCAUGUAAUCAUAAUGGCUGAUGUAGAGUCAGGAUAUGUGUGGCUAACAAUCGCAGAAGGGACAAGACUGG [Deportation 32 - Jieux - Exclusion NG 3] (Eterna round: R96, puzzle: Exclusion NG 3)",,,,31.4 nM,29.5 nM,21.6 nM
"ACAUGAGGAUCACCCAUGUAAUCAUGAUGGCUGAUGUAGAGCUAGGAUAUGAGUGGCUUUCUAUCUCAGAAGGAGCUUGACUGG [Deportation 42 - Jieux - Exclusion NG 3] (Eterna round: R96, puzzle: Exclusion NG 3)",,,,28.9 nM,37.2 nM,25.5 nM
"ACAUGAGGAUCACCCAUGUAAUGAAGGGUACUAUACUAAACGUAGGAUAUCGAUGUAAGAUUGAACGAGAAGGACGAUUGCCUU [JR_ExcNG3_Sub050] (Eterna round: R96, puzzle: Exclusion NG 3)",,,,55.9 nM,72.8 nM,42 nM
"ACAUGAGGAUCACCCAUGUAAUGAUGGGUACUAUAUUAUUCGUAGGAUAUCGUUGUUAGUUUGUGCGAGAAGGACGAUUGCUUU [JR_ExcNG3_Sub057] (Eterna round: R96, puzzle: Exclusion NG 3)",,,,,,733 nM
"ACAUGAGGAUCACCCAUGUACACGUAAUGGCUCAUGUAGAGUCAGGAUAUGCGUGGCGAACUCGCGCAGAAGGGACAAGACUGG [Deportation 21 - Jieux - Exclusion NG 3] (Eterna round: R96, puzzle: Exclusion NG 3)",,,,27.1 nM,23 nM,18.6 nM
"ACAUGAGGAUCACCCAUGUACACGUAAUGGCUCAUGUAGAGUGAGGAUAUGUGUGACGAACGAGCACAGAAGGCACAAGACUGG [Deportation 12 - Jieux - Exclusion NG 3] (Eterna round: R96, puzzle: Exclusion NG 3)",,,,51.8 nM,40.2 nM,39.8 nM
"ACAUGAGGAUCACCCAUGUACAGGGUUUAGUUUCAUUGUUUGAAGGAUAUACUUAGUUAGUUGUUGUAGAAGGUCAUAUUUUAU [JR_ExcNG3_Sub002] (Eterna round: R96, puzzle: Exclusion NG 3)",,,,,,156 nM
"ACAUGAGGAUCACCCAUGUCAGGCUGGUCCGCUCCGGCUGUUGAGGAUAUAGCACGGUGUCCGCGCUAGAAGGUGAGGGCCGGC [Aenatbe mod 31] (Eterna round: R96, puzzle: Exclusion NG 3)",,,,24.8 nM,26.4 nM,15.7 nM
"ACAUGAGGAUCACCCAUGUCCGGCUGGUCUGGUCCGGCUGUCGAGGAUAUAGUCCGGUGUUCGCGCUAGAAGGCGGGAGCUGGA [Aenatbe mod 50] (Eterna round: R96, puzzle: Exclusion NG 3)",,,,144 nM,85 nM,62.2 nM
"ACAUGAGGAUCACCCAUGUCCGGCUGGUCUGUUCCGGCUGUCGAGGAUAUAGUCCGGUGUUCGCGCUAGAAGGCGGGAGCUGGA [Aenatbe mod 51] (Eterna round: R96, puzzle: Exclusion NG 3)",,,,67.5 nM,46.2 nM,34.5 nM
"ACAUGAGGAUCACCCAUGUCCGGCUGGUCUGUUUCGGCUGUCGAGGAUAUAGUUCGGUGUUCGCGCUAGAAGGUGGGAGCUGGC [Aenatbe mod 58] (Eterna round: R96, puzzle: Exclusion NG 3)",,,,160 nM,134 nM,106 nM
"ACAUGAGGAUCACCCAUGUCGAGUACAUGAGGAUCACCCAUGUAGGAUAUGGUUCGCUUUGCGUGCUAGAAGGAUAUGUGUUGC [salish99_ExNG3_r04_509] (Eterna round: R96, puzzle: Exclusion NG 3)",,,,351 nM,241 nM,199 nM
"ACAUGAGGAUCACCCAUGUCGGGCUGGUCCGCUCCGGCUGUUGAGGAUAUAGCCCGGUAUCCGCGCUAGAAGGUGAGGGCCGGC [Aenatbe mod 29] (Eterna round: R96, puzzle: Exclusion NG 3)",,,,35.6 nM,31.4 nM,29.5 nM
"ACAUGAGGAUCACCCAUGUCUGGCUGGUCCGCUCCGGCUGUUGAGGAUAUAGCUCGGUGUCCGCGCUAGAAGGUGAGGGCCGGC [Aenatbe mod 33] (Eterna round: R96, puzzle: Exclusion NG 3)",,,,22.4 nM,25.1 nM,18.6 nM
"ACAUGAGGAUCACCCAUGUCUGGCUGGUCCGUCUCGGCUGUCGAGGAUAUGGCUCGGUGUCCGCGCUAGAAGGCGGGAGCCGGA [Aenatbe mod 77] (Eterna round: R96, puzzle: Exclusion NG 3)",,,,685 nM,78.8 nM,58.2 nM
"ACAUGAGGAUCACCCAUGUCUGGCUGGUCUGCUCCGGCUGUUGAGGAUAUAGUCCGGUGUUCGCGCUAGAAGGCGAGGGCUGGA [Aenatbe mod 42] (Eterna round: R96, puzzle: Exclusion NG 3)",,,,42.5 nM,48.4 nM,21.9 nM

# — the supplement of paper PMC9170038
